test system: Escherichia coli TOP10; test: shrunken log2 fold change of peptide-encoding DNA abundance (4.5 h post-induction vs induction); higher = less antimicrobial activity (less host growth inhibition); conditions: time post-induction: 4.5 h; library: site-saturation at positions 5, 18, 19, 20
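Also: peptides expressed intracellularly from a pBAD plasmid library in pooled LB shake-flask culture, induced with 0.3% L-arabinose, DNA abundance read by NGS, three biological replicates, DESeq2 with apeglm shrinkage.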

Sequence | shrunken log2 fold change
RRIRSRPPRLPRPRPRPIQNPRP | -0.119
RRIRIRPPRLPRPRPRPYDMPRP | -0.19
RRIRQRPPRLPRPRPRPGYEPRP | 0.00854
RRIRVRPPRLPRPRPRPMFWPRP | 0.285
RRIRKRPPRLPRPRPRPDNWPRP | 0.235
RRIRLRPPRLPRPRPRPSQAPRP | 0.182
RRIRERPPRLPRPRPRPGVFPRP | 0.248
RRIRGRPPRLPRPRPRPPTLPRP | 0.596
RRIRLRPPRLPRPRPRPWSMPRP | 0.202
RRIRTRPPRLPRPRPRPAAHPRP | 0.199
RRIRDRPPRLPRPRPRPRSQPRP | 0.137
RRIRNRPPRLPRPRPRPKFQPRP | -0.505
RRIRCRPPRLPRPRPRPNQGPRP | -0.203
RRIRIRPPRLPRPRPRPYWQPRP | -0.774
RRIRNRPPRLPRPRPRPPGMPRP | -0.138
RRIRLRPPRLPRPRPRPHAKPRP | -0.0928
RRIRVRPPRLPRPRPRPWVRPRP | 0.0573
RRIRTRPPRLPRPRPRPVPKPRP | 0.0251
RRIRRRPPRLPRPRPRPILAPRP | 1.17
RRIRSRPPRLPRPRPRPSDCPRP | -0.79
RRIRERPPRLPRPRPRPYLSPRP | -0.515
RRIRKRPPRLPRPRPRPMWLPRP | 0.642
RRIRVRPPRLPRPRPRPLQRPRP | -0.0358
RRIRSRPPRLPRPRPRPDTCPRP | -0.225
RRIRRRPPRLPRPRPRPWWHPRP | 0.0484

Sequence | shrunken log2 fold change
RRIRIRPPRLPRPRPRPVMYPRP | -0.052
RRIRQRPPRLPRPRPRPAEFPRP | -0.0119
RRIRTRPPRLPRPRPRPNHHPRP | -0.687
RRIRLRPPRLPRPRPRPGDWPRP | 0.618
RRIRHRPPRLPRPRPRPWQYPRP | -0.17
RRIRVRPPRLPRPRPRPNYAPRP | -0.192
RRIRQRPPRLPRPRPRPFNSPRP | -0.3
RRIRARPPRLPRPRPRPKDIPRP | -0.00725
RRIRARPPRLPRPRPRPIKPPRP | 0.0335
RRIRNRPPRLPRPRPRPKNGPRP | 0.96
RRIRTRPPRLPRPRPRPCFQPRP | -0.232
RRIRTRPPRLPRPRPRPAYIPRP | 0.412
RRIRHRPPRLPRPRPRPPMCPRP | -0.00483
RRIRQRPPRLPRPRPRPLHSPRP | -0.295
RRIRLRPPRLPRPRPRPAMHPRP | 0.0794
RRIRLRPPRLPRPRPRPISDPRP | -0.014
RRIRERPPRLPRPRPRPRCMPRP | -0.355
RRIRSRPPRLPRPRPRPVFAPRP | 0.218
RRIRQRPPRLPRPRPRPKENPRP | 0.168
RRIRWRPPRLPRPRPRPKIRPRP | 0.00361
RRIRWRPPRLPRPRPRPSCWPRP | 0.0114
RRIRRRPPRLPRPRPRPRQGPRP | 0.298
RRIRHRPPRLPRPRPRPFEFPRP | -0.0195
RRIRARPPRLPRPRPRPCCPPRP | -0.273
RRIRKRPPRLPRPRPRPHGNPRP | -0.0306

Sequence | shrunken log2 fold change
RRIRQRPPRLPRPRPRPQYLPRP | -0.131
RRIRIRPPRLPRPRPRPGIEPRP | -0.154
RRIRVRPPRLPRPRPRPCCTPRP | -0.247
RRIRHRPPRLPRPRPRPEPYPRP | 0.0514
RRIRERPPRLPRPRPRPALRPRP | 0.0887
RRIRHRPPRLPRPRPRPRDGPRP | 0.84
RRIRMRPPRLPRPRPRPILPPRP | 0.0577
RRIRDRPPRLPRPRPRPDYEPRP | -0.0367
RRIRHRPPRLPRPRPRPDFWPRP | 0.372
RRIRDRPPRLPRPRPRPLPMPRP | 0.0543
RRIRDRPPRLPRPRPRPGVRPRP | 0.502
RRIRVRPPRLPRPRPRPTPFPRP | 0.279
RRIRARPPRLPRPRPRPDKDPRP | 0.083
RRIRVRPPRLPRPRPRPTTCPRP | -0.0091
RRIRFRPPRLPRPRPRPPLHPRP | 0.198
RRIRKRPPRLPRPRPRPLTNPRP | -0.0294
RRIRTRPPRLPRPRPRPHTPPRP | 0.0178
RRIRNRPPRLPRPRPRPQMKPRP | -0.281
RRIRYRPPRLPRPRPRPWMGPRP | -0.294
RRIRERPPRLPRPRPRPSDVPRP | -0.182
RRIRWRPPRLPRPRPRPGHDPRP | 0.043
RRIRARPPRLPRPRPRPGRKPRP | 0.43
RRIRFRPPRLPRPRPRPMDQPRP | -0.247
RRIRCRPPRLPRPRPRPDENPRP | -0.0357
RRIRMRPPRLPRPRPRPDCFPRP | 0.0619
